This note sets out measurements from paper PMC8960796, “Crystal structure report of the ImmR transcriptional regulator DNA-binding domain of the Bacillus subtilis ICEBs1 transposon” (Scientific Reports, 2022).

This series deals with the molecule itself. The experiment in a line: crystal structure; crystals from 18% (w/v) PEG 3350, 10 mM magnesium chloride, 50 mM Tris-HCl pH 8.5; space group I2, two protomers per a.u. related by a dyad; data at 100 K, 2.10 Å.

B1: ImmR transcriptional regulator DNA-binding domain (Bacillus subtilis ICEBs1) (domain or fragment, Bacillus subtilis strain 168, UniProt P96631 1-64, looked up)
chain: MSLGKRLKEARQKAGYTQKEAAEKLNIGNNNLSNYERDYRDPDTDTLLKLSNLYNVSTDYLLGK
notes: ImmR, HTH-type transcriptional regulator of ICEBs1, Bacillus subtilis strain 168, 127 residues; the final model comprises M1-K64 of molecules A and B, each with an N-terminal alanine (A0) left from the purification tag; Full-length ImmR (1-127) was set up for crystallisation; The authors suppose that a trypsin-like contaminant cut it after K64, because there is no density beyond K64 and the …
B1: the binding result is on record as “binds”.
